According to article PMC12146848, “Deciphering meiotic chromatin organization by SYCP3”:

What was measured:
SYCP3 [1] = molecular target: T1, SYCP3 (Mus musculus, UniProt P70281); experiment: competition; 50-fold excess against labeled WT Probe; higher affinity than WT; Beyotime GS008 Gel-Shift binding buffer (composition and pH not given), 15 ul, 1 h at room temperature, 4% polyacrylamide gel; conditions: protein: recombinant; tags: C-terminal 6xHis; chain copies: 4; label: unlabeled; blunt
T1 sequence: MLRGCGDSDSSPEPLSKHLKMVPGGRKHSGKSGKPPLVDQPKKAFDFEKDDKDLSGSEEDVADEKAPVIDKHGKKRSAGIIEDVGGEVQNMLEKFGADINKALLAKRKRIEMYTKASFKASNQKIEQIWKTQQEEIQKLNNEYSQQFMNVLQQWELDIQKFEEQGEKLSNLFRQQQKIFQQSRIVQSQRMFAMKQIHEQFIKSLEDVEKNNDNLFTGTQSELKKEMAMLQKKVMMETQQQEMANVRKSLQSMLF

SYCP3 [2] = molecular target: T1, SYCP3; experiment: EMSA; stronger than WT Probe; Beyotime GS008 Gel-Shift binding buffer (composition and pH not given), 15 ul, 1 h at room temperature, 4% polyacrylamide gel; conditions: protein: recombinant; tags: C-terminal 6xHis; chain copies: 4; label: 3' biotin-dUTP added by TdT on both strands; blunt before 3' TdT labeling
SYCP3 [3] = molecular target: T1, SYCP3; experiment: EMSA; 0.2 uM probe, 1 ug SYCP3 in 15 ul; Beyotime GS008 Gel-Shift binding buffer (composition and pH not given), 15 ul, 1 h at room temperature, 4% polyacrylamide gel; conditions: protein: recombinant; tags: C-terminal 6xHis; chain copies: 4; label: 3' biotin-dUTP added by TdT on both strands; blunt before 3' TdT labeling
SYCP3 [4] = molecular target: T1, SYCP3; experiment: competition; 50-fold excess against labeled WT Probe; efficient competition; Beyotime GS008 Gel-Shift binding buffer (composition and pH not given), 15 ul, 1 h at room temperature, 4% polyacrylamide gel; conditions: protein: recombinant; tags: C-terminal 6xHis; chain copies: 4; label: unlabeled; blunt

B1: Mut competitor (dsDNA)
DNA 1: GTGACTTCAACAGCCAGGTCTTAATTTCAAATGCATTGAATAGATGTCTTGTCTCCCAGA
DNA 2: TCTGGGAGACAAGACATCTATTCAATGCATTTGAAATTAAGACCTGGCTGTTGAAGTCAC
binding result (SYCP3 [1]): binds

B2: Mut probe (dsDNA)
DNA 1: GTGACTTCAACAGCCAGGTCTTAATTTCAAATGCATTGAATAGATGTCTTGTCTCCCAGA
DNA 2: TCTGGGAGACAAGACATCTATTCAATGCATTTGAAATTAAGACCTGGCTGTTGAAGTCAC
binding result (SYCP3 [2]): binds

B3: WT Probe (dsDNA)
DNA 1: ACAGTCCTGGTGATTGAACTCCGGCCCTGGGCATGCCAGGCGAGCACTCCACTCTTTGAG
DNA 2: CTCAAAGAGTGGAGTGCTCGCCTGGCATGCCCAGGGCCGGAGTTCAATCACCAGGACTGT
binding result (SYCP3 [3]): binds

B4: WT competitor (dsDNA)
DNA 1: ACAGTCCTGGTGATTGAACTCCGGCCCTGGGCATGCCAGGCGAGCACTCCACTCTTTGAG
DNA 2: CTCAAAGAGTGGAGTGCTCGCCTGGCATGCCCAGGGCCGGAGTTCAATCACCAGGACTGT
binding result (SYCP3 [4]): binds
